This note sets out measurements from patent US20210206865A1 (Regeneron, published 2021).

For experiment [1], the target named is T1, human BCMA-MMH (extracellular domain of human BCMA with C-terminal myc-myc-hexahistidine tag) (human).
T1 construct: Monomeric antigen; also called hBCMA.mmh; hBCMA.mmH
T1 chain: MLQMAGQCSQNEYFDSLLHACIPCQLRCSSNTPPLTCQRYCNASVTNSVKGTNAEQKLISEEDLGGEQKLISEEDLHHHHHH
Put plainly: SPR Biacore, 25 C, mAb captured via anti-hFc. As for the experimental part: (§1) The CM5 Biacore sensor surface was derivatized by amine coupling with a monoclonal mouse anti-human Fc antibody (GE, #BR-1008-39) to capture purified anti-BCMA mAbs and anti-BCMA×anti-CD3 bispecific mAbs. All Biacore binding studies were performed in a buffer composed of 0.01M HEPES pH 7.4, 0.15M NaCl, 3 mM EDTA, 0.05% v/v Surfactant P20 (HBS-ET running buffer). […] Antigen samples were then injected over the anti-BCMA and anti-BCMA×anti-CD3 bispecific mAbs captured surfaces at a flow rate of 30 μL/minute. Antibody-reagent association was monitored for 5 minutes while dissociation in HBS-ET running buffer was monitored for 10 minutes. All of the binding kinetics experiments were performed at 25° C. Kinetic association (kₐ) and dissociation (kd) rate constants were determined by fitting the real-time sensorgrams to a 1:1 binding model using Scrubber 2.0c curve fitting software. Binding dissociation equilibrium constants (KD) and dissociative half-lives (t1/2) were calculated from the kinetic rate constants as: […]

Experiment [2] addresses T2, human BCMA-MFC (extracellular domain of human BCMA with C-terminal mFc tag) (human).
T2 construct: also called hBCMA.mFc
T2 chain: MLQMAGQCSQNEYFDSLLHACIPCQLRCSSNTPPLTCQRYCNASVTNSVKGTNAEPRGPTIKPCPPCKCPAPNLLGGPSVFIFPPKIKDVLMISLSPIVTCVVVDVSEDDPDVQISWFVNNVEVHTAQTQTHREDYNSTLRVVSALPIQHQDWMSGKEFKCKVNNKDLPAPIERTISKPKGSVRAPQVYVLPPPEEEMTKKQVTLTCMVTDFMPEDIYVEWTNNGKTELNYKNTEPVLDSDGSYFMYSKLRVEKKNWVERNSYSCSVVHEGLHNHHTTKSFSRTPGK
Put plainly: SPR Biacore, 25 C, mAb captured via anti-hFc. The procedure: as §1
For orientation: In SPR one partner is held on a chip, and binding of the other changes the refractive index at the surface.

Experiment [3] deals with T3, monkey BCMA-MFC (monkey BCMA with C-terminal mFc tag) (monkey).
T3 construct: also called mfBCMA.mFc
Put plainly: SPR Biacore, 25 C, mAb captured via anti-hFc. As for the experimental part:
as §1

In experiment [4] the target is T4, mouse BCMA-MFC (BCMA with C-terminal mFc tag) (mouse).
T4 construct: Tested at a single concentration of 30 nM; also called mBCMA.mFc
T4 chain: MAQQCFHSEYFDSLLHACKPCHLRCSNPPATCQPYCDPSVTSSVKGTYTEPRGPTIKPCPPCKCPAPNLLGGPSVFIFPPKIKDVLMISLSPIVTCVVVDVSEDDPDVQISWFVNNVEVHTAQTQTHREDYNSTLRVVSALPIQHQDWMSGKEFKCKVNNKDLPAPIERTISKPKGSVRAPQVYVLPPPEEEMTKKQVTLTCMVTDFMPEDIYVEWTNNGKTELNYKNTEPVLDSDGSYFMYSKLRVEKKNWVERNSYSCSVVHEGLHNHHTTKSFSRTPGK
Put plainly: SPR Biacore, 25 C, mAb captured via anti-hFc. The procedure:
as §1

For experiment [5], the target named is T5, human BCMA on the surface of cell lines (NCI-H929, MM.1S, OPM-2, RPMI-8226, Daudi, Raji, MOLP-8, U266) (human, UniProt Q02223 1-184).
T5 sequence: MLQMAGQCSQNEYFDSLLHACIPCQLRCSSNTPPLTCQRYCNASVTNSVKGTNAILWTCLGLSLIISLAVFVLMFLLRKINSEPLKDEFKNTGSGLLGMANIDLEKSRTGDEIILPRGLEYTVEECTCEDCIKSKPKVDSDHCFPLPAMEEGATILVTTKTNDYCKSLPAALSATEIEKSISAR
Put plainly: cell-based or functional assay.

The target of experiment [6] is T5, human BCMA on the surface of cell lines …. Put plainly: cell-based or functional assay. The source holds these as a separate data set.
Experiment [7] shares this target. Put plainly: cell-based or functional assay. This is another data set of the same source.
Experiment [8] addresses T6, monkey BCMA-MMH (monkey BCMA with C-terminal myc-myc-hexahistidine tag) (monkey).
T6 construct: Monomeric antigen; also called mfBCMA.mmh
Put plainly: SPR Biacore, 25 C, mAb captured via anti-hFc. As for the experimental part:
as §1

Experiment [9] addresses T5, human BCMA on the surface of cell lines …. Briefly: cell-based or functional assay. The source holds these as a separate data set.

B1: mAb16732 (REGN4514) (antibody, V domains shown)
VH: EVQLVESGGGLVQPGRSLRLSCAASGFTFDDYAMHWVRQAPGKGLEWVSGISWNSGNMGYADSVKGRFTISRDNAKNSLFLQMHSLRAEDTAFYYCAKVRLTAFDFWGQGTLVTVSS
VL: DIQMTQSPSSLSASVGDRVTITCRTSQSIGNYLNWFQQKPGKAPKLLIYTASSLQNGVPSRFTGSGSGTDFTLTISSLQPEDFVIYYCQQSFSTPYTFGQGTKLEIK
notes: Anti-BCMA monoclonal antibody; Captured by anti-human Fc in SPR
B1: in experiment [1], the “90 nM hBCMA.mmh Bind (RU)” value is 25.3 RU, binding was put at a Kd of 2.69 nM, the koff (commonly a measure of how fast the partners let go of each other) was found to be 0.00285 s⁻¹ and the kon (commonly a measure of how fast the partners come together) was 1.06e+06 M⁻¹ s⁻¹. In experiment [1], the t1/2 came out at 4.1 min. Moreover, in experiment [2], the “30 nM hBCMA.mFc Bind (RU)” value was 124 RU; the Kd – broadly, a measure of binding affinity in units of concentration – is 0.0422 nM; the koff was 4.53e-05 s⁻¹; the kon is 1.07e+06 M⁻¹ s⁻¹. Besides, in experiment [2], the t1/2 is 255 min. In [3], the “30 nM mfBCMA.mFc Bind (RU)” value worked out at 40.3 RU, the Kd is 14.7 nM, the koff is 0.00724 s⁻¹ and the kon stood at 492000 M⁻¹ s⁻¹. Further, the t1/2 in experiment [3] was determined as 1.6 min. Moreover, in experiment [4], the “30 nM mBCMA.mFc Bind (RU)” value amounted to 110 RU, the Kd is 0.677 nM, the koff worked out at 0.000269 s⁻¹ and the kon amounted to 397000 M⁻¹ s⁻¹. In [4], this molecule came in with a t1/2 of 43 min.

B2: mAb16711 (antibody, V domains shown)
VH: QVQLVESGGGVVQPGRSLRLSCAASGFTFSTYGIHWVRQAPGKGLEWVAVILHDGSSNYYAESVKGRFIISRDNSKNTLYLQMNSLRAEDTALYYCTKRYSEAAGPNWFDPWGQGTLVTVSS
VL: DIQMTQSPSSVSASVGDRVTITCRASRGISSWLAWYQQKPGKAPKLLIHAASSLQSGVPSRFSGSGSGTDFTLTISSLQPEDFATYYCQQAISFPFTFGPGTKVDIK
notes: as for B1
Consider B2, for which, in experiment [5], the “MFI fold change over cells incubated in media only, NCI-H929, overnight with 67 nM antibody” value was found to be 2.8 fold and the “MFI fold change over cells incubated in media only, NCI-H929, overnight with 667 nM antibody” value was 2.1 fold. In experiment [6], the “MFI fold change over cells incubated in media only, Molp8, overnight with 67 nM antibody” value is 3.5 fold and the “MFI fold change over cells incubated in media only, Molp8, overnight with 667 nM antibody” value amounted to 3 fold. Also, in [7], the “MFI fold change over cells incubated in media only, U266, overnight with 67 nM antibody” value was 2.2 fold and the “MFI fold change over cells incubated in media only, U266, overnight with 667 nM antibody” value came to 2.2 fold. For the same molecule, in [1], the “90 nM hBCMA.mmh Bind (RU)” value is 22.2 RU, the Kd came to 1.73 nM, the koff turned out to be 0.00347 s⁻¹ and the kon was determined as 2.01e+06 M⁻¹ s⁻¹. Further, the t1/2 in experiment [1] came to 3.3 min. In addition, in experiment [2], the “30 nM hBCMA.mFc Bind (RU)” value turned out to be 114 RU, the Kd was 0.103 nM, the koff was 0.00019 s⁻¹ and the kon was determined as 1.85e+06 M⁻¹ s⁻¹. The same molecule had a t1/2 in [2] of 60.8 min. Also, the “90 nM mfBCMA.mmh Bind (RU)” value in experiment [8] is -0.5 RU. Besides, in experiment [3], the “30 nM mfBCMA.mFc Bind (RU)” value is 0.9 RU and the binding result is listed as “no binding (tested: 30 nM)”. Further, in experiment [4], the “30 nM mBCMA.mFc Bind (RU)” value turned out to be 90 RU, the Kd amounted to 1.02 nM, the koff was determined as 0.0011 s⁻¹ and the kon turned out to be 1.07e+06 M⁻¹ s⁻¹. The t1/2 in [4] was determined as 10.5 min.

B3: mAb16716 (antibody, V domains shown)
VH: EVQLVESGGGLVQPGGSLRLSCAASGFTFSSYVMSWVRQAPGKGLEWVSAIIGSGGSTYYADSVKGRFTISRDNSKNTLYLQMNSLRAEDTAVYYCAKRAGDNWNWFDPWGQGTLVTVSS
VL: DIQMTQSPSSVSASLGDRVTITCRASQGISSWLAWYQRKPGKAPKLLIYAASSLQSGVPSRFSGSGSGADFTLTISSLQPEDFATYYCQQAKSVPFTFGPGTKVDIK
notes: as for B1
With B3, in experiment [1], the “90 nM hBCMA.mmh Bind (RU)” value worked out at 26.4 RU, the Kd is 3.56 nM, the koff is 0.00299 s⁻¹ and the kon was 841000 M⁻¹ s⁻¹. For the same molecule, the t1/2 in [1] came out at 3.9 min. Further, in experiment [2], the “30 nM hBCMA.mFc Bind (RU)” value was 120 RU, the Kd was 0.0968 nM, the koff came to 8.35e-05 s⁻¹ and the kon amounted to 862000 M⁻¹ s⁻¹. The molecule also registered a t1/2 in [2] of 138 min. Also, in [8], the “90 nM mfBCMA.mmh Bind (RU)” value worked out at 0.8 RU and the binding result is “no binding (tested: 90 nM)”. Also, in experiment [4], the “30 nM mBCMA.mFc Bind (RU)” value worked out at 33.4 RU, the Kd turned out to be 18.8 nM, the koff worked out at 0.00385 s⁻¹ and the kon was found to be 205000 M⁻¹ s⁻¹. In experiment [4], this molecule registered a t1/2 of 3 min.

B4: mAb16747 (REGN4515) (antibody, V domains shown)
VH: QVQLVESGGGLVKPGGSLRLSCAASGFTFSDYYISWIRQAPGKGLEWVSYISSSGSSIKYADSVKGRFTISRDNAKNSLYLQMNSLRAEDTAVYYCAREGGNYGMDVWGQGTTVTVSS
VL: DIQMTQSPSSVSASVGDRVTITCRASQGINNWLVWYQQKPGKAPKLLIYAATSLQSGVPSRFSGSGSGTDFTLTISSLQPEDFATYYCQQANSFPPTFGQGTKLEIK
notes: as for B1
With B4, in experiment [5], the “MFI fold change over cells incubated in media only, NCI-H929, overnight with 67 nM antibody” value amounted to 1.8 fold and the “MFI fold change over cells incubated in media only, NCI-H929, overnight with 667 nM antibody” value was 2.1 fold. In [6], the “MFI fold change over cells incubated in media only, Molp8, overnight with 67 nM antibody” value was 2.2 fold and the “MFI fold change over cells incubated in media only, Molp8, overnight with 667 nM antibody” value was 0.6 fold. For the same molecule, in experiment [7], the “MFI fold change over cells incubated in media only, U266, overnight with 67 nM antibody” value turned out to be 1.5 fold and the “MFI fold change over cells incubated in media only, U266, overnight with 667 nM antibody” value turned out to be 1.7 fold. In experiment [1], the “90 nM hBCMA.mmh Bind (RU)” value is 31.4 RU, the Kd was determined as 2.84 nM, the koff amounted to 0.00247 s⁻¹ and the kon worked out at 869000 M⁻¹ s⁻¹. Further, in experiment [1], the t1/2 was 4.7 min. Further, in experiment [2], the “30 nM hBCMA.mFc Bind (RU)” value stood at 146 RU, the Kd came to 0.0633 nM, the koff came to 8.95e-05 s⁻¹ and the kon amounted to 1.41e+06 M⁻¹ s⁻¹. The same molecule displayed a t1/2 in experiment [2] of 129 min. In addition, in experiment [3], the “30 nM mfBCMA.mFc Bind (RU)” value turned out to be 101 RU, the Kd came out at 3.37 nM, the koff is 0.00716 s⁻¹ and the kon came to 2.13e+06 M⁻¹ s⁻¹. Further, the t1/2 in experiment [3] was found to be 1.6 min. Moreover, in [4], the “30 nM mBCMA.mFc Bind (RU)” value came out at 108 RU, the Kd was 4.42 nM, the koff was determined as 0.00418 s⁻¹ and the kon was determined as 947000 M⁻¹ s⁻¹. The molecule further yielded a t1/2 in experiment [4] of 2.8 min.

B5: mAb21581, parental bivalent anti-BCMA antibody (antibody, V domains shown)
VH: EVQLVESGGGLVQPGGSLRLSCAASGFTFSNFWMTWVRQAPGKGLEWVANMNQDGSEKYYVDSVKGRFTISRDNAKSSLYLQMNSLRAEDTAVYYCARDREYCISTSCYDDFDYWGQGTLVTVSS
VL: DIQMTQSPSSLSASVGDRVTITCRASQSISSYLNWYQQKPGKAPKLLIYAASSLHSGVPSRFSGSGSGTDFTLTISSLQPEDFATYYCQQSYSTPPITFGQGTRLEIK
On to B5, for which, in [5], the “MFI fold change over cells incubated in media only, NCI-H929, overnight with 67 nM antibody” value worked out at 1.2 fold and the “MFI fold change over cells incubated in media only, NCI-H929, overnight with 667 nM antibody” value is 1.4 fold. Moreover, in [6], the “MFI fold change over cells incubated in media only, Molp8, overnight with 67 nM antibody” value came out at 2.3 fold and the “MFI fold change over cells incubated in media only, Molp8, overnight with 667 nM antibody” value stood at 3.7 fold. In [7], the “MFI fold change over cells incubated in media only, U266, overnight with 67 nM antibody” value was 1.8 fold and the “MFI fold change over cells incubated in media only, U266, overnight with 667 nM antibody” value worked out at 2.3 fold. Further, in experiment [9], the “MFI fold change over cells incubated in media only, MM1S, overnight with 67 nM antibody” value came to 7.3 fold and the “MFI fold change over cells incubated in media only, MM1S, overnight with 667 nM antibody” value was determined as 7 fold.
